Assay results from publication PMC4917968.
pKd: −log10 of the molar value.

How the values were obtained:
[1] = biological target: Full-length mouse eRF1 (mouse) (UniProt Q8BWY3); experiment: ITC; 22 °C, MicroCal VP-ITC; 20 mM HEPES pH 7.5, 150 mM NaCl, 5 mM TCEP; injectant protein 220-300 μM into a cell with 13-20 μM protein; single-site model
[2] = biological target: Full-length mouse eRF1 (mouse) (UniProt Q8BWY3); experiment: ITC; competition: RNase H (WT or mutant) titrated to the preformed eRF1/eRF3 complex; apparent Kd; 22 °C, 20 mM HEPES pH 7.5, 150 mM NaCl, 5 mM TCEP; single-site model

Isolated RNase H domain of MoMLV RT (aa 500–671) (domain or fragment)
pKd [1]: 5.38
pKd [2]: 5.25

RNase H mutant F588A (isolated RNase H domain of MoMLV RT) (domain or fragment)
fold reduction of binding against WT RNase H [1]: 10 fold
